Data reported in US20220241369A1, “COMPOSITIONS AND METHODS OF MODULATING INFLAMMATION” (La Jolla Institute for Allergy and Immunology, priority 2018, published 2022).

Columns and labels:
[1] = test system: sensitization phase of murine food allergy; test: Pretreatment with HRF inhibitor before sensitization with OVA plus alum; assay type: in vivo, mouse; settings: 100 μg i.g. one day before i.p. immunization on days 0 and 14
Experimental: Mice were i.g. pretreated with 100 μg of GST, GST-N19, HRF-2CA or PBS (OVA) one day before i.p. immunization with OVA plus alum on days 0 and 14. From day 28, mice were i.g. challenged with OVA three times a week. (FIG. 9A) Procedure scheme. (FIG. 9B) The development of diarrhea was monitored after OVA challenge. (n=5 for OVA, n=4 for GST, n=5 for N19, n=5 for 2CA, and n=3 each for unsensitized pretreated groups (not shown)). (FIG. 9C, FIG. 9D) Total IgE and IgG1 were measured by ELISA.
Whether HRF inhibitors affect the sensitization phase of food allergy was tested.

IgE+ mMCP-1+ mast cells = test: Localization of gavaged HRF inhibitors in jejunum by confocal microscopy; assay type: in vivo, mouse; settings: using anti-His tag, data not shown
Experimental: HRF multimers in the jejunum of non-sensitized/OVA challenged (Cont, n=6) or OVA-sensitized/OVA-challenged (OVA, n=5) mice were quantified by a newly developed ELISA (FIG. 3A, FIG. 3C). HRF was also measured by ELISA (FIG. 3B). HRF dimer and monomer were quantified by western blotting in control (Cont) and food allergic mice treated without (OVA) or with GST (GST) or GST-N19 (N19) (n=5 for each group) (FIG. 3D). Allergic diarrhea was induced by 6 challenges. On the day of 7th challenge, the mice were gavaged with 0.1 mg of GST or GST-N19 (FIG. 3E). One hour later, mice were sacrificed without OVA challenge. Jejunum tissues were stained for GST, IgE, and mMCP-1 before confocal microscopy (n=5 for GST and n=6 for GST-N19). Arrows indicate cells positive for GST or GST-N19 as well as IgE and mMCP-1. […] Bars=50 μm.
Jejunum biopsy was fixed in 4% paraformaldehyde at 4° C., washed in 10-20% sucrose in phosphate buffered saline, and embedded in O.C.T. compound (Sakura Finetek, Japan). Cyrosections were made in 6 μm and blocked with 2% skim milk. Immunostaining was performed with anti-HRF (rabbit polyclonal FL-172), anti-GST (rabbit polyclonal Z-5) (Santa Cruz Biotechnology), anti-IgE (clone RME-1 from Biolegend and clone R35-72 from BD Biosciences), anti-mMCP1 (Catalog #AF5146, R&D Systems), anti-CD45 (clone 30-F11), anti-CD63 (clone NVG-2) (Biolegend), and anti-Siglec F (clone E50-2440, BD Biosciences) as primary antibodies, and anti-Rabbit Alexa Fluor 647 (Catalog #A21245), anti-Rat Alexa Fluor 568 (Catalog #A11077), and anti-Sheep Alexa Fluor 555 (Catalog #A11015) (Thermo Fisher Scientific) as secondary antibodies. Coverslips were mounted with Prolong Gold with DAPI (Thermo Fisher Scientific) and fluorescence was observed under Leica TCS SP2 confocal microscopy (Leica) and Nuance Multi spectral Imaging System (PerkinElmer).
Applicant next tested whether HRF inhibitors target mucosal mast cells. To this end, mice with allergic diarrhea were i.g. gavaged with GST-N19 or GST, and their location was identified 1 h after their gavage.

B1: HRF-2CA-His6, a monomeric mutant of mouse HRF (protein)
chain: MIIYRDLISHDELFSDIYKIREIADGLALEVEGKMVSRTEGAIDDSLIGGNASAEGPEGEGTESTVVTGVDIVMNHHLQETSFTKEAYKKYIKDYMKSLKGKLEEQKPERVKPFMTGAAEQIKHILANFNNYQFFIGENMNPDGMVALLDYREDGVTPFMIFFKDGLEMEKAHHHHHH
sensitization phase of murine food allergy [1]: do not affect | IgE+ mMCP-1+ mast cells targeted by the His-tagged substance (IgE+ mMCP-1+ mast cells): 64.0±2.69%
